Results: patent US12258605B2, “Alkane oxidation by modified hydroxylases” (The California Institute of Technology, priority 2005, dated 2025)
Positions count from the first letter of the chain named. Names and notes keep the numbering of the source.

B1: 35-E11: P450 BM-3 variant, SEQ ID NO:7: 53-5H substitutions plus E464G and I710T (protein)
chain: TIKEMPQPKTFGELKNLPLLNTDKPVQALMKIADELGEIFKFEAPGCVTRYLSSQRLIKEACDESRFDKNLSQALKFFRDFSGDGLFTSWTHEINWKKAHNILLPSFSQQAMKGYHAMMVDIAVQLVQKWERLNADEHIEVSEDMTRLTLDTIGLCGFNYRFNSFYRDQPHPFIISMVRALDEVMNKLQRANPDDPAYDENKRQCQEDIKVMNDLVDKIIADRKARGEQSDDLLTQMLNGKDPETGEPLDDGNISYQIITFLIAGHETTSGLLSFALYFLVKNPHVLQKVVEEAARVLVDPVPSYKQVKQLKYVGMVLNEALRLWPTFPAFSLYAKEDTVLGGEYPLEKGDEVMVLIPQLHRDKTIWGDDVEEFRPERFENPSAIPQHAFKPFGNGQRACIGQQFALHEATLVLGMMLKHFDFEDHTNYELDIKETLTLKPEGFVVKAKSKKIPLGGIPSPSTGQSAKKVRKKAENAHNTPLLVLYGSNMGTAEGTARDLADIAMSKGFAPQVATLDSHAGNLPREGAVLIVTASYNGHPPDNAKQFVDWLDQASADEVKGVRYSVFGCGDKNWATTYQKVPAFIDETLAAKGAENIADRGEADASDDFEGTYEEWREHMWSDVAAYFNLDIENSEDNKSTLSLQFVDSAADMPLAKMHGAFSTNVVASKELQQPGSARSTRHLEIELPKEASYQEGDHLGVIPRNYEGTVNRVTARFGLDASQQIRLEAEEEKLAHLPLAKTVSVEELLQYVELQDPVTRTQLRAMAAKTVCPPHKVELEALLEKQAYKEQVLAKRLTMLELLEKYPACEMKFSEFIALLPSIRPRYYSISSSPRVDEKQASITVSVVSGEAWSGYGEYKGIASNYLAELQEGDTITCFISTPQSEFTLPKDPETPLIMVGPGTGVAPFRGFVQARKQLKEQGQSLGEAHLYFGCRSPHEDYLYQEELENAQSEGIITLHTAFSRMPNQPKTYVQHVMEQDGKKLIELLDQGAHFYICGDGSQMAPAVEATLMKSYADVHQVSEADARLWLQQLEEKGRYAKDVWAG
modifications: mutant P450 35-E11 protein sequence
B2: Wild-type BM-3: wild-type cytochrome P450 BM-3 from Bacillus megaterium, SEQ ID NO:1 (protein, listed as Bacillus megaterium)
chain: TIKEMPQPKTFGELKNLPLLNTDKPVQALMKIADELGEIFKFEAPGRVTRYLSSQRLIKEACDESRFDKNLSQALKFVRDFAGDGLFTSWTHEKNWKKAHNILLPSFSQQAMKGYHAMMVDIAVQLVQKWERLNADEHIEVPEDMTRLTLDTIGLCGFNYRFNSFYRDQPHPFITSMVRALDEAMNKLQRANPDDPAYDENKRQFQEDIKVMNDLVDKIIADRKASGEQSDDLLTHMLNGKDPETGEPLDDENIRYQIITFLIAGHETTSGLLSFALYFLVKNPHVLQKAAEEAARVLVDPVPSYKQVKQLKYVGMVLNEALRLWPTAPAFSLYAKEDTVLGGEYPLEKGDELMVLIPQLHRDKTIWGDDVEEFRPERFENPSAIPQHAFKPFGNGQRACIGQQFALHEATLVLGMMLKHFDFEDHTNYELDIKETLTLKPEGFVVKAKSKKIPLGGIPSPSTEQSAKKVRKKAENAHNTPLLVLYGSNMGTAEGTARDLADIAMSKGFAPQVATLDSHAGNLPREGAVLIVTASYNGHPPDNAKQFVDWLDQASADEVKGVRYSVFGCGDKNWATTYQKVPAFIDETLAAKGAENIADRGEADASDDFEGTYEEWREHMWSDVAAYFNLDIENSEDNKSTLSLQFVDSAADMPLAKMHGAFSTNVVASKELQQPGSARSTRHLEIELPKEASYQEGDHLGVIPRNYEGIVNRVTARFGLDASQQIRLEAEEEKLAHLPLAKTVSVEELLQYVELQDPVTRTQLRAMAAKTVCPPHKVELEALLEKQAYKEQVLAKRLTMLELLEKYPACEMKFSEFIALLPSIRPRYYSISSSPRVDEKQASITVSVVSGEAWSGYGEYKGIASNYLAELQEGDTITCFISTPQSEFTLPKDPETPLIMVGPGTGVAPFRGFVQARKQLKEQGQSLGEAHLYFGCRSPHEDYLYQEELENAQSEGIITLHTAFSRMPNQPKTYVQHVMEQDGKKLIELLDQGAHFYICGDGSQMAPAVEATLMKSYADVHQVSEADARLWLQQLEEKGRYAKDVWAG
B3: P450PMO: P450 BM-3 variant, SEQ ID NO:125; 7-7 plus G443A and D698G; propane monooxygenase (protein)
chain: B1 chain with L52I, A74E, S82G, L188P, I366V, G443A, D698G
modifications: Mutant P450PMO protein sequence
notes: 7-7 plus G443A and D698G; propane monooxygenase

Tests used:
[1] = Propane hydroxylation (rate, total turnover, products); type: biochemical
Method: Cell lysates for high throughput screening were prepared as described previously (Peters et al., J. Am. Chem. Soc. 125:13442 (2003); incorporated by reference herein). High-throughput dimethyl ether (DME) screens were performed in 96 well plates as described previously. Improved mutants were selected based on an increased signal compared to 9-10A (for the saturation mutagenesis libraries) and 1-12G (for the recombination library). Reactions on octane and propane were analyzed by gas chromatography as described.
Rates of ethanol formation were measured over 30 min using gas chromatography (GC) coupled to an electron capture detector (ECD) and are reported as nmol ethanol/min/nmol enzyme. Errors are at most 10%. Total turnover number (ttn) was measured using GC after completion of the reaction and is reported as nmol product/nmol protein. Errors are at most 10%. Initial rates of propanol and octanol formation were measured over 1 min by GC and are reported as nmol product/min/nmol protein. Errors are at most 15%. The “ee” of 2-octanol (main product) was measured by GC; the favored enantiomer is listed in parenthesis. Wild-type P450 BM-3 primarily produces 3- and 4-octanol. The yields were not sufficient for the determination of ee for wt BM-3. Mutant 9-10A contains amino acid substitutions R47C, V78A K94I, P142S, T175I, A184V, F205C, S226R, H236Q, E252G, R255S, A290V, and L353V.
In Table 5 the product distribution is determined as ratio of a specific alcohol product to the total amount of all alcohol products (given in %). The product distribution for ketones was similar to alcohol product distribution. The numbers reported here are the (%) total of all ketones relative to total products (alcohols+ketones). The favored enantiomer is listed in parentheses.
For the data shown in Table 6 the initial NADPH consumption rates were measured over 15 seconds at 340 nm as nmol NADPH/min/nmol protein. Octane reactions contained 100 nM P450, 166 uM NADPH, and 4 mM octane in 1% ethanol and potassium phosphate buffer. […] Errors are at most 10%. Initial rates were measured by GC over 1 minute as nmol total products/min/nmol protein. Octane reactions contained 100 nM P450, 500 uM NADPH, and 4 mM octane in 1% ethanol and potassium phosphate buffer. Propane reactions contained 1 uM P450, 500 uM NADPH, and propane-saturated potassium phosphate buffer. Coupling was determined by ratio of product formation rate to NADPH consumption rate. Total turnover numbers were determined as nmol product/nmol enzyme. Octane reactions contained 10-25 nM P450, 500 uM NADPH, and 4 mM octane in 1% ethanol and potassium phosphate buffer. Propane reactions contained 10-25 nM protein, potassium phosphate buffer saturated with propane, and an NADPH regeneration system containing 100 uM NADP+, 2 U/mL isocitrate dehydrogenase, and 10 mM isocitrate.

[2] = Kinetic constants for n-alkanes: pentane; type: biochemical; settings: N.a. = not active
Method: Rate measurements. Initial rates of product formation were determined at 25° C. in 100 mM KPi pH 8.0 buffer using purified protein (100 nM) and a substrate concentration of 1.6 mM. In a 5 mL-vial, 20 μL of alkane solution (in ethanol) were dissolved in 400 μL KPi buffer, to which 500 μL enzyme solution at 100-200 nM was added. Reaction was initiated by adding 100 μL of 5 mM NADPH solution, followed by stirring at 300 rpm for 1 minute, and quenched by adding 200 μL chloroform and stirring at 800 rpm for 10 sec. Solutions were transferred to an Eppendorf tube, to which internal standard (10 μL 25 mM 1-bromohexane in ethanol) was added. Tubes were vortexed for 10 sec and centrifuged for 30 sec at 10,000 g. Organic phase was removed and analyzed by GC. For propane, reactions were carried out in a 5 mL-scale using 100-400 nM purified enzyme, propane-saturated buffer (propane concentration≈1.6 mM) and a final NADPH concentration of 500 μM. Reactions were stopped by addition of 200 μL H2SO4 conc. and analyzed by derivatization to alkyl nitrites followed by GC-ECD analysis as described below.
Products from alkane reactions were identified and quantified by gas chromatography using authentic standards and calibration curves with internal standards. For the reactions with alkanes from pentane to decane, GC analyses were carried out using a Shimadzu GC-17A gas chromatograph, Agilent HP5 column (30 m×0.32 mm×0.1 μm film), 1 μL injection, FID detector, and the following separation program: 250° C. inlet, 250° C. detector, 50° C. oven for 3 min, 5° C./min gradient to 100° C., 25° C./min gradient to 230° C., and 230° C. for 3 min. For butane and propane (TTN) reactions, GC analyses were carried out using a Hewlett-Packard 5890 Series II Plus gas chromatograph, Supelco SPB-1 column (60 m×0.52 mm×0.5 μm film), 0.5 μL injection, FID detector, and the following separation program: 250° C. inlet, 275° C. detector, 80° C. oven for 2 min, 10° C./min gradient to 110° C., 25° C./min gradient to 275° C., and 275° C. for 2.5 min. For ethane and propane (rate) reactions, analysis of reaction mixtures was carried out by derivatization to alkyl nitrites followed by GC-ECD analysis. For laurate, reaction product analysis was carried out by derivatization with N-methyl-N-trimethylsilylheptafluorobutyramide followed by extraction with hexane. Organic solutions were analyzed by FID-GC.
To further investigate the evolution of substrate specificity, kinetic constants for the C5 to C8 alkanes were determined from Michaelis-Menten plots (Table 19). The preference of 35E11 and its evolutionary predecessors for medium-chain alkanes is indicated by their high C8/C5 specificities ((kcat/Km)8/(kcat/Km)5˜100), where Km appears to be the major contributing factor. […]

Molecule	Propane ttn ([1]; after completion of the reaction)	Propane Rate ([1]; initial rate of propanol formation over 1 min by GC)	Km [2]	kcat [2]	activity on propane ([1]; listed as P450BM3)	activity on propane ([1]; listed as wild-type P450BM3)	activity on propane ([1]; listed as wildtype cytochrome P450 BM-3)
B1	6000 nmol product/nmol protein	210 nmol product/min/nmol protein	1030 ± 57 µM	12.7 ± 0.867 s⁻¹			
B2					no measurable activity	no detectable propane activity	inactive
B3			835 ± 117 µM	2.5 ± 0.233 s⁻¹			
